Assay results reported in patent US20060216339.

Experiments:
[1] = tested on: purified recombinant Elk1 protein (Elk1-GST fusion protein) [GST: P08515]
[2] = tested on: recombinant mammalian ERK2 (MAPK p42 protein, bacterial recombinant, already containing phospho-tyrosine-185)

Chain of purified recombinant Elk1 protein (Elk1-GST fusion protein) [GST: P08515] (P08515 whole entry, looked up, the tested form may be a part): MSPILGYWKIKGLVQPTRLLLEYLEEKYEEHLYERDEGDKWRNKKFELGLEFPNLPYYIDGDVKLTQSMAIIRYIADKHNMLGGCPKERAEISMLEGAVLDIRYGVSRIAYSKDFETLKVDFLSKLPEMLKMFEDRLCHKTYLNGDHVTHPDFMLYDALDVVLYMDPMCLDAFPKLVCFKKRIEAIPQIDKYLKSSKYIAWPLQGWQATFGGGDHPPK

Substance	phosphorylation of Elk1 at Ser^383 (Western blot with Ab^pElk1) [1]	ERK2 activity (production of phospho-Elk1) [2]
active apMAPK (phospho-apMAPK, dually phosphorylated at the T-E-Y site)	the apPKG-activated ap-MAPK phosphorylated its physiological substrate, Elk1, at the appropriate Ser^383	
ERK2 activated by apPKG (doubly phosphorylated, T183 and Y185)	ERK2 activity was measured by the phosphorylation of Elk1 at Ser^383	
MEK1 (MAP kinase kinase 1)-GST fusion protein, activated by the catalytic subunit of MEKK1		MEK1, which produces the maximally activated kinase
